Columns and labels:
[1] = tested on: CD8+ T cells of healthy HLA-B*08 donors; assay: In vitro T-cell priming assay with aAPCs loaded with peptide/MHC complexes and anti-CD28 antibody, pMHC multimer readout; assay type: cell-based, human; details: Table 10A; in vitro immunogenicity, HLA-B*08 pMHC, healthy donors
Text: In order to obtain information regarding the immunogenicity of the TUMAPs of the present invention, the inventors performed investigations using an in vitro T-cell priming assay based on repeated stimulations of CD8+ T cells with artificial antigen presenting cells (aAPCs) loaded with peptide/MHC complexes and anti-CD28 antibody.
In order to perform in vitro stimulations by artificial antigen presenting cells loaded with peptide-MHC complex (pMHC) and anti-CD28 antibody, the inventors first isolated CD8+ T cells from fresh HLA-B*08 leukapheresis products via positive selection using CD8 microbeads (Miltenyi Biotec, Bergisch-Gladbach, Germany) of healthy donors obtained from the University clinics Mannheim, Germany, after informed consent.
PBMCs and isolated CD8+ lymphocytes were incubated in T-cell medium (TCM) until use consisting of RPMI-Glutamax (Invitrogen, Karlsruhe, Germany) supplemented with 10% heat inactivated human AB serum (PAN-Biotech, Aidenbach, Germany), 100 U/ml Penicillin/100 μg/ml Streptomycin (Cambrex, Cologne, Germany), 1 mM sodium pyruvate (CC Pro, Oberdorla, Germany), 20 μg/ml Gentamycin (Cambrex). 2.5 ng/ml IL-7 (PromoCell, Heidelberg, Germany) and 10 U/ml IL-2 (Novartis Pharma, Nornberg, Germany) were also added to the TCM at this step.
Generation of pMHC/anti-CD28 coated beads, T-cell stimulations and readout was performed in a highly defined in vitro system using four different pMHC molecules per stimulation condition and 8 different pMHC molecules per readout condition.
The purified co-stimulatory mouse IgG2a anti human CD28 Ab 9.3 (Jung et al., 1987) was chemically biotinylated using Sulfo-N-hydroxysuccinimidobiotin as recommended by the manufacturer (Perbio, Bonn, Germany). Beads used were 5.6 μm diameter streptavidin coated polystyrene particles (Bangs Laboratories, Illinois, USA).
800.000 beads/200 μl were coated in 96-well plates in the presence of 4×12.5 ng different biotin-pMHC, washed and 600 ng biotin anti-CD28 were added subsequently in a volume of 200 μl. Stimulations were initiated in 96-well plates by co-incubating 1×10^6 CD8+ T cells with 2×10^5 washed coated beads in 200 μl TCM supplemented with 5 ng/ml IL-12 (PromoCell) for 3 days at 37° C. Half of the medium was then exchanged by fresh TCM supplemented with 80 U/ml IL-2 and incubating was continued for 4 days at 37° C. This stimulation cycle was performed for a total of three times. For the pMHC multimer readout using 8 different pMHC molecules per condition, a two-dimensional combinatorial coding approach was used as previously described (Andersen et al., 2012) with minor modifications encompassing coupling to 5 different fluorochromes. Finally, multimeric analyses were performed by staining the cells with Live/dead near IR dye (Invitrogen, Karlsruhe, Germany), CD8-FITC antibody clone SK1 (BD, Heidelberg, Germany) and fluorescent pMHC multimers. For analysis, a BD LSRII SORP cytometer equipped with appropriate lasers and filters was used. Peptide specific cells were calculated as percentage of total CD8+ cells. Evaluation of multimeric analysis was done using the FlowJo software (Tree Star, Oregon, USA). In vitro priming of specific multimer+CD8+ lymphocytes was detected by comparing to negative control stimulations.

HLA-B*08:01 = HLA-B*08:01 (Homo sapiens, UniProt P01889); assay: MHC binding assay (UV-ligand exchange, beta2m ELISA); details: MHC class I binding score; binding to HLA-B*08:01 ranged by peptide exchange yield (UV-ligand exchange, β2m ELISA)
Text: Candidate peptides for T cell based therapies according to the present invention were further tested for their MHC binding capacity (affinity). The individual peptide-MHC complexes were produced by UV-ligand exchange, where a UV-sensitive peptide is cleaved upon UV-irradiation and exchanged with the peptide of interest as analyzed. Only peptide candidates that can effectively bind and stabilize the peptide-receptive MHC molecules prevent dissociation of the MHC complexes. To determine the yield of the exchange reaction, an ELISA was performed based on the detection of the light chain (β2m) of stabilized MHC complexes. The assay was performed as generally described in Rodenko et al. (Rodenko et al., 2006).
96 well MAXISorp plates (NUNC) were coated over night with 2 ug/ml streptavidin in PBS at room temperature, washed 4× and blocked for 1 h at 37° C. in 2% BSA containing blocking buffer. Refolded HLA-A*02:01/MLA-001 monomers served as standards, covering the range of 15-500 ng/ml. Peptide-MHC monomers of the UV-exchange reaction were diluted 100-fold in blocking buffer. Samples were incubated for 1 h at 37° C., washed four times, incubated with 2 ug/ml HRP conjugated anti-β2m for 1 h at 37° C., washed again and detected with TMB solution that is stopped with […]. Absorption was measured at 450 nm. Candidate peptides that show a high exchange yield (preferably higher than 50%, most preferred higher than 75%) are generally preferred for a generation and production of antibodies or fragments thereof, and/or T cell receptors or fragments thereof, as they show sufficient avidity to the MHC molecules and prevent dissociation of the MHC complexes.

Substance	Wells positive [%] [1]	Peptide exchange (HLA-B*08:01)
283 (MAQFKEISL; listed as Homo sapiens) [compound 283]	++++ (>=70% = ++++)	
278 (RAQLKLVAL; listed as Homo sapiens) [compound 278]	+ (<20% = +)	
124 (HSWTRTSV; listed as Homo sapiens) [compound 124]		+++ (50% = +++)
109 (IPASHPVLTL; listed as Homo sapiens) [compound 109]		++ (20% = ++)
186 (DLISPRQPRL; listed as Homo sapiens) [compound 186]		++ (20% = ++)
194 (RAIEHVLQV; listed as Homo sapiens) [compound 194]		+++ (50% = +++)
119 (FQRVSSVSF; listed as Homo sapiens) [compound 119]		+++ (50% = +++)
112 (NALDPLSAL; listed as Homo sapiens) [compound 112]		++ (20% = ++)
188 (EIMEKTTL; listed as Homo sapiens) [compound 188]		++ (20% = ++)
239 (SEPVMRVTL; listed as Homo sapiens) [compound 239]		++ (20% = ++)
251 (DAAAFFKSV; listed as Homo sapiens) [compound 251]		++ (20% = ++)
249 (QQIDRVVEV; listed as Homo sapiens) [compound 249]		++ (20% = ++)
182 (ILHLSAIAL; listed as Homo sapiens) [compound 182]		++++ (75% = ++++)
100 (VLLMGPLHL; listed as Homo sapiens) [compound 100]		++ (20% = ++)
195 (EGNQKSVI; listed as Homo sapiens) [compound 195]		++ (20% = ++)
172 (PYEKVSRL; listed as Homo sapiens) [compound 172]		++ (20% = ++)
24 (DLVLKRCL; listed as Homo sapiens) [compound 24]		++++ (75% = ++++)
130 (LPAPYQHQL; listed as Homo sapiens) [compound 130]		++ (20% = ++)
116 (FTQNPRVQL; listed as Homo sapiens) [compound 116]		++ (20% = ++)

Substance	Wells positive [%] [1]	Peptide exchange (HLA-B*08:01)
284 (ELKKKEYEEL; listed as Homo sapiens) [compound 284]	+ (<20% = +)	
217 (ETIKGHSVRL; listed as Homo sapiens) [compound 217]		++ (20% = ++)
126 (TAAEARLSL; listed as Homo sapiens) [compound 126]		++ (20% = ++)
148 (DVNPVSLQL; listed as Homo sapiens) [compound 148]		++ (20% = ++)
79 (GLARIYSF; listed as Homo sapiens) [compound 79]		++ (20% = ++)
153 (HAIPHYVTM; listed as Homo sapiens) [compound 153]		++ (20% = ++)
129 (HRILRLPAL; listed as Homo sapiens) [compound 129]		+++ (50% = +++)
127 (EPVIRTVSI; listed as Homo sapiens) [compound 127]		+++ (50% = +++)
156 (ILKEQSSSSF; listed as Homo sapiens) [compound 156]		++ (20% = ++)
143 (DADLREQAL; listed as Homo sapiens) [compound 143]		++ (20% = ++)
94 (DQLLRHVM; listed as Homo sapiens) [compound 94]		+++ (50% = +++)
285 (EAMLRNKEL; listed as Homo sapiens) [compound 285]	+ (<20% = +)	
183 (YVSKPGAQL; listed as Homo sapiens) [compound 183]		++ (20% = ++)
171 (FPSQVPKQVL; listed as Homo sapiens) [compound 171]		++ (20% = ++)
226 (DIYEVAVSL; listed as Homo sapiens) [compound 226]		+++ (50% = +++)
187 (VPYNSVLF; listed as Homo sapiens) [compound 187]		++ (20% = ++)
54 (DLSRRDVSL; listed as Homo sapiens) [compound 54]		++ (20% = ++)
15 (LLKKIEHA; listed as Homo sapiens) [compound 15]		++ (20% = ++)
220 (LAVRHLSL; listed as Homo sapiens) [compound 220]		++ (20% = ++)

Substance	Wells positive [%] [1]	Peptide exchange (HLA-B*08:01)
232 (KLYIHRVTL; listed as Homo sapiens) [compound 232]		++ (20% = ++)
200 (VAAARAVPV; listed as Homo sapiens) [compound 200]		++ (20% = ++)
84 (YITRQFVQF; listed as Homo sapiens) [compound 84]		++ (20% = ++)
101 (FAFEKLIQF; listed as Homo sapiens) [compound 101]		+++ (50% = +++)
151 (DRHLTNRVL; listed as Homo sapiens) [compound 151]		++ (20% = ++)
218 (DNHPRLVTL; listed as Homo sapiens) [compound 218]		+++ (50% = +++)
230 (DVYFHHVL; listed as Homo sapiens) [compound 230]		++ (20% = ++)
90 (TIGLGLHSL; listed as Homo sapiens) [compound 90]		++ (20% = ++)
163 (EVMAQFKEI; listed as Homo sapiens) [compound 163]		++ (20% = ++)
211 (DVISKGVSL; listed as Homo sapiens) [compound 211]		++ (20% = ++)
95 (SRNPRGFFL; listed as Homo sapiens) [compound 95]		++ (20% = ++)
237 (LPLDSRYVTL; listed as Homo sapiens) [compound 237]		+++ (50% = +++)
145 (MIYRKALRL; listed as Homo sapiens) [compound 145]		++ (20% = ++)
167 (DMKITVSL; listed as Homo sapiens) [compound 167]		+++ (50% = +++)
202 (RIPEKASFL; listed as Homo sapiens) [compound 202]		++ (20% = ++)
210 (QPNTHQLL; listed as Homo sapiens) [compound 210]		++ (20% = ++)
149 (TQKSVQVL; listed as Homo sapiens) [compound 149]		++ (20% = ++)
122 (ESSAQPTAL; listed as Homo sapiens) [compound 122]		++ (20% = ++)
